In publication PMC9035363 (Cell Reports, 2022):
Read-outs that look alike come from different tables or passages of the source.

Legend:
Assay in all cases: SPR
[1] = target: T1, SARS-CoV-2 S protein, soluble trimer (SARS-CoV-2, Wuhan reference …, UniProt P0DTC2, stabilised)
[2] = target: T2, SARS-CoV-2 D614G S protein, soluble trimer (SARS-CoV-2, Wuhan sequence with D614G, UniProt A0A6H1PJZ3, D614G)
[3] = target: T1, SARS-CoV-2 S protein, soluble trimer; remark: listed apart in the source
[4] = target: T2, SARS-CoV-2 D614G S protein, soluble …; remark: listed apart in the source

B1: LY-CoV1404 (bebtelovimab), full-length human IgG1 mAb (antibody, V domains shown)
VH: QITLKESGPTLVKPTQTLTLTCTFSGFSLSISGVGVGWLRQPPGKALEWLALIYWDDDKRYSPSLKSRLTISKDTSKNQVVLKMTNIDPVDTATYYCAHHSISTIFDHWGQGTLVTVSS
VL: QSALTQPASVSGSPGQSITISCTATSSDVGDYNYVSWYQQHPGKAPKLMIFEVSDRPSGISNRFSGSKSGNTASLTISGLQAEDEADYYCSSYTTSSAVFGGGTKLTVL
Kd [1]: 0.22 nM | Kd [2]: 0.0461 nM | Kd [3]: 0.0745 nM

B2: REGN10987 (imdevimab) (antibody, V domains shown)
VH: QVQLVESGGGVVQPGRSLRLSCAASGFTFSNYAMYWVRQAPGKGLEWVAVISYDGSNKYYADSVKGRFTISRDNSKNTLYLQMNSLRTEDTAVYYCASGSDYGDYLLVYWGQGTLVTVSS
VL: QSALTQPASVSGSPGQSITISCTGTSSDVGGYNYVSWYQQHPGKAPKLMIYDVSKRPSGVSNRFSGSKSGNTASLTISGLQSEDEADYYCNSLTSISTWVFGGGTKLTVL
binding result [1]: binds

B3: LY-CoV1404 Fab (papain digestion) (Fab, V domains shown)
VH: B1 VH
VL: B1 VL
Kd [4]: 0.79 nM
